Laboratory results taken from publication PMC12474881.
One block for each substance: values may come before it.

How the values were obtained:
[1] = biological target: CaMKIIδ-0 F368A/Q407A (human); experiment: mass photometry
[2] = biological target: CaMKIIδ-0 F368A/L405M (human); experiment: mass photometry
[3] = biological target: CaMKIIα with exon 14 only as the variable linker (human)
[4] = biological target: CaMKIIα with exon 18 only as the variable linker (human)
[5] = biological target: CaMKIIβ with exon 14 only as the variable linker (human)
[6] = biological target: CaMKIIδ with exon 14 only as the variable linker (human)
[7] = biological target: CaMKIIα exon 18 with all Ser and Thr residues in exon 18 mutated to Ala (human)
[8] = biological target: CaMKIIα mutants with acidic exon 18 positioned proximal to the regulatory segment
[9] = biological target: CaMKIIα with acidic exon 14 (all basic residues of exon 14 mutated to acidic residues) (human)
[10] = biological target: CaMKIIα with basified exon 18 (human)
[11] = biological target: CaMKIIα with the sequence of exon 18 reversed (human)
CaMKIIδ-0 F368A (human) = experiment: mass photometry

percent of the population as tetradecameric holoenzyme at 100 nM [1]: 5%
stoichiometry N [1]: 2
Substance: CaMKIIδ-0 F368A/Q407A (enzyme)

percent of the population as tetradecameric holoenzyme at 100 nM [2]: 5%
stoichiometry N [2]: 2
Substance: CaMKIIδ-0 F368A/L405M (enzyme)

EC50 of Ca2+/CaM for kinase activity against syntide-2 (coupled kinase assay) [3]: 0.017 µM
EC50 of Ca2+/CaM for kinase activity against syntide-2 (coupled kinase assay) [4]: 0.193 µM
EC50 of Ca2+/CaM for kinase activity against syntide-2 (coupled kinase assay) [5]: 0.02 µM
EC50 of Ca2+/CaM for kinase activity against syntide-2 (coupled kinase assay) [6]: 0.02 µM
EC50 of Ca2+/CaM for kinase activity (coupled kinase assay) [7]: 0.35 µM
EC50 of Ca2+/CaM for kinase activity (coupled kinase assay) [8]: 0.07 µM
EC50 of Ca2+/CaM for kinase activity against syntide-2 (coupled kinase assay) [9]: 0.102 µM
EC50 of Ca2+/CaM for kinase activity against syntide-2 (coupled kinase assay) [10]: 0.034 µM
EC50 of Ca2+/CaM for kinase activity against syntide-2 (coupled kinase assay) [11]: 0.041 µM
Substance: Calmodulin (Gallus gallus) (from UniProt P62149 1-149) (natural protein)

percent of the total population as dimers at 25 nM (CaMKIIδ-0 F368A (human)): 20%
percent of the total population as dimers at 100 nM (CaMKIIδ-0 F368A (human)): 10%
percent of the total population as tetramers at 100 nM (CaMKIIδ-0 F368A (human)): 5%
stoichiometry N (CaMKIIδ-0 F368A (human)): 14
Substance: CaMKIIδ-0 F368A (enzyme)
